The values below come from the RNAGym collection of RNA variant scans (doi:10.1073/pnas.2313332121).

B1: TPR t1 (parent)
chain: GACCAAUCUGCCCUCAGAGCUCGAGAACAUCUUCGGAUGCAGAGGAGGCAGGCUUCGGUGGCGCGAUAGCGCCAACGUCCUCAACCUCCAAUGCAUCCCACCACAUGAUGAUGCCUGAAGAGCCUUGGUUUUUUG

This data set covers variants of B1. Kind of data set: polymerase ribozyme fitness, log enrichment relative to wild type (log ratio); higher = more active; in vitro selection for triplet polymerase activity. The essentials:
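After PCR construction and transcription, each subunit's mutant library from a heterodimeric triplet polymerase ribozyme was annealed with a biotinylated primer, the partner subunit and triplets. Incubation was frozen, at −7 °C, and extended constructs were gel-excised, bound to streptavidin beads and amplified by RT-PCR, in one selection round done in triplicate. Fitness is the logarithm of a genotype's enrichment divided by that of the wild type, from inverse-variance-weighted replicate averages of Illumina-sequenced inputs and outputs. The base of the logarithm is 2, and genotypes needed ≥10 input reads and ≥1 read per output.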
On to U96A G128C, for which the “polymerase ribozyme fitness (log ratio)” value was -3.28.

On to C94A C101G, for which the “polymerase ribozyme fitness (log ratio)” value is -2.45. Under C102A U130A stands -3.46; under U96G C98U, -3.02. On to A100C U106A U132C, for which the “polymerase ribozyme fitness (log ratio)” value was -0.19.

Regarding C101U U106A, the “polymerase ribozyme fitness (log ratio)” value is -0.286. Turning to C101U U116C A119G U129A, the “polymerase ribozyme fitness (log ratio)” value is 1.01. In the case of C101U G135U, the “polymerase ribozyme fitness (log ratio)” value was -1.68. Under G93C A121U stands 1.21; under C98A U112G, -5.66; under G93C A105U C114G A119G, -7.51. As to A100U C101U C104A, the “polymerase ribozyme fitness (log ratio)” value was -2.87. Turning to C102G U112A, the “polymerase ribozyme fitness (log ratio)” value is -5.7. For C101U G107C, the “polymerase ribozyme fitness (log ratio)” value is -6.63.

For the variant G93U C101A G113A C115G, the “polymerase ribozyme fitness (log ratio)” value was -4.73. In the case of G93U A121U, the “polymerase ribozyme fitness (log ratio)” value was determined as 1.23. Take C94G U109A: the “polymerase ribozyme fitness (log ratio)” value is -6.28.

For the variant U96G G113U, the “polymerase ribozyme fitness (log ratio)” value is -3.21. Under C98U G117C stands -5.29; under U96A C98U, -3.4; under A95U A119U U125A G127U, -2.7.

Turning to C94U G135U, the “polymerase ribozyme fitness (log ratio)” value was -1.34.

With A95U G113U U125A, the “polymerase ribozyme fitness (log ratio)” value is -3.81. Consider C97U U116G, for which the “polymerase ribozyme fitness (log ratio)” value is -2.81. G93A U130G: the “polymerase ribozyme fitness (log ratio)” value is -1.45. Under C94G G113A stands -3.13; under G93C U112A, 0.679. For the variant C97G A119G, the “polymerase ribozyme fitness (log ratio)” value was -2.68. Consider C99U G117U, for which the “polymerase ribozyme fitness (log ratio)” value is -3.93. For C98U U116A A119G, the “polymerase ribozyme fitness (log ratio)” value is -0.385. As for C99U U132C, the “polymerase ribozyme fitness (log ratio)” value is -3.53.

For A95C U116C U129A U131C G135U, the “polymerase ribozyme fitness (log ratio)” value is -3. C99A G127C: the “polymerase ribozyme fitness (log ratio)” value was -5.7. Under C101U A121G U126A stands 1.07; under G93U C98U G120C, -3.66. For C98A C123U, the “polymerase ribozyme fitness (log ratio)” value is -4.06. As to C99A U112A G120A, the “polymerase ribozyme fitness (log ratio)” value was -5.93. For A100U U129A, the “polymerase ribozyme fitness (log ratio)” value was -0.992. G93C C102A: the “polymerase ribozyme fitness (log ratio)” value was -2.96.

Regarding C97U G110A, the “polymerase ribozyme fitness (log ratio)” value was -1.67. Regarding U96C U106A, the “polymerase ribozyme fitness (log ratio)” value is -1.43. Under C94U G120C stands 0.688; under C99A C102U, -4.82; under C97A U112C, -2.11.

For C97U A119U C123A, the “polymerase ribozyme fitness (log ratio)” value was -1.43. For G93C U96C G110A A118C, the “polymerase ribozyme fitness (log ratio)” value is -2.57.

Consider C94A G127U U134G G135U, for which the “polymerase ribozyme fitness (log ratio)” value was -2.31. Regarding C102A G120U U130G, the “polymerase ribozyme fitness (log ratio)” value was -2.39. For the variant A95C A108G G110U, the “polymerase ribozyme fitness (log ratio)” value is -4.

In the case of C99U U133A, the “polymerase ribozyme fitness (log ratio)” value is -2.99. Regarding U96G U129C, the “polymerase ribozyme fitness (log ratio)” value is -0.569. For A95C G120U, the “polymerase ribozyme fitness (log ratio)” value was -0.765. For C101G C114A, the “polymerase ribozyme fitness (log ratio)” value was -3.3. On to A100U U125G, for which the “polymerase ribozyme fitness (log ratio)” value was -0.739. Consider C97U U106A U132G U133A, for which the “polymerase ribozyme fitness (log ratio)” value was 0.00837.

Take C99U A121G: the “polymerase ribozyme fitness (log ratio)” value was -0.804. On to C98U U125G, for which the “polymerase ribozyme fitness (log ratio)” value was -2.35. On to C98A A111U, for which the “polymerase ribozyme fitness (log ratio)” value was -5.78.

For C101G G122C C124A U126A, the “polymerase ribozyme fitness (log ratio)” value is -3.82. For the variant C97U U125G, the “polymerase ribozyme fitness (log ratio)” value is -1.25. Consider C97U U125A, for which the “polymerase ribozyme fitness (log ratio)” value is -1.31. Take C101A U126G G127C: the “polymerase ribozyme fitness (log ratio)” value is -2.49. As to C94A G110U, the “polymerase ribozyme fitness (log ratio)” value was -2.28.

For the variant U96A U125G, the “polymerase ribozyme fitness (log ratio)” value was -1.93. Turning to C94U G107A, the “polymerase ribozyme fitness (log ratio)” value is -4.87. In the case of C99A G120C, the “polymerase ribozyme fitness (log ratio)” value is -3.95. Take U96G C102G C124U U125A: the “polymerase ribozyme fitness (log ratio)” value is -6.03. Regarding A100C C101G C104A C124A, the “polymerase ribozyme fitness (log ratio)” value was -3.18. With U96A C115A the figure was -3.09. With U96C C123G the figure was 1.78; with G93U A95U C97G G120U C124U, -6.74. In the case of A100C G110C, the “polymerase ribozyme fitness (log ratio)” value was -4.94. As for U96C A100U, the “polymerase ribozyme fitness (log ratio)” value is -1.08. U96A C123G: the “polymerase ribozyme fitness (log ratio)” value was 0.707. With U96A U112C G127C the figure was -0.056. Take U96A G113U: the “polymerase ribozyme fitness (log ratio)” value is -3.61. With C98U U116C, the “polymerase ribozyme fitness (log ratio)” value is -1.99. Take G93C: the “polymerase ribozyme fitness (log ratio)” value was -0.928. Regarding G93U, the “polymerase ribozyme fitness (log ratio)” value was -1.12. A95C C101U U106A: the “polymerase ribozyme fitness (log ratio)” value is -0.358. With C94U C115A the figure was -0.137; with C101A G113A, -2.4; with C101G G120C, -0.696.
